In patent US9944712B2, “TLR3 binding agents” (INNATE PHARMA, priority 2012, dated 2018):
Numbering of substitutions follows the chain as printed.

Assays:
[1] = tested on: COPD mouse model; test: COPD mouse model (Elastin and LPS); type: in vivo; settings: drug combination study, FIG. 5E
Method: All mice were treated at days 0, 7, 14 and 21 with Elastin and LPS (i.n.), to induce COPD. At day 28 mice were sacrificed for analysis.
The cellular infiltrates into airways was measured by analysis of bronchoalveolar lavage (BAL) fluid by differential cell count on day 28. The oxygenation of venous blood was measured by gasometry on day 28. The level inflammatory mediators in BALF, through the analysis for protein levels of TNF-alpha, IL-6, IL-17A and IP-10 was performed by multiplex assay. […] Statistical analysis was performed on all data utilizing a Student's t test: ‘*’ p<0.05; ‘**’ p<0.005; ‘***’ p<0.0005.
Four groups of mice were treated as follows: • 1 group of mice with a vehicle (PBS, i.p., twice per week). • 1 group of mice with the anti-mouse TLR3 28G7 antibody administration (i.p., 500 μg/per mouse, […]; antagonist of PDE-4) (3 mg/kg, oral, five times per week). • 1 group of mice with both roflumilast and 28G7 antibody, each agent according to the schedule used as single agent.
All mice were treated with Elastin and LPS (i.n.), to induce COPD and sacrificed as in study A.
The cellular infiltrates into airways was measured by analysis of bronchoalveolar lavage (BAL) fluid by differential cell count as in Study A.

[2] = tested on: TLR3 mutant polypeptides; test: FACS staining of cells expressing TLR3 mutant polypeptides (epitope mapping); type: binding, human; settings: for binding to wild type TLR3 and mutants K145E, D116R, E171A, K182E or N196A: FACS; for binding to TLR3 in presence of the mutation K145E or K182E: hybridoma clone screening
Method: Mutagenesis was performed on wild type human TLR3 inserted into a pcDNA3.1 vector. After sequencing, the vectors containing the mutated sequences were prepared as Maxiprep using the Promega PureYield™ Plasmid Maxiprep System. Vectors were then used for HEK-293T cell transfection using Invitrogen's Lipofectamine 2000 according to the manufacturer instructions.
All the Mx-R primers were used with the following 5′ primer […] (SEQ ID NO: 121). All the Mx-F primers were used with the following 3′ primer […] (SEQ ID NO: 122). The sequences amplified were run on agarose gel then purified using the Qiagen Gel Extraction kit. The two PCR product generated for each mutant were then ligated into a pcDNA3.1 vector, digested with the restriction enzyme NheI and NotI, with the InFusion system (Clontech) according to the manufacturer's instructions.
After sequencing, the vectors containing the mutated sequences were prepared as Maxiprep using the Promega PureYield™ Plasmid Maxiprep System. Vectors were then used for HEK-293T cell transfection using Invitrogen's Lipofectamine 2000 according to the manufacturer instructions.
(§1) The mature wild-type or mutant TLR3 sequence was fused to the CD32 transmembrane and intracellular domains as described by De Bouteiller et al. (2005) J. Biol. Chem. 280(46): 38133-38145. A first round of PCR was performed to introduce a V5 tag in N-terminal position of the TLR3-CD32 fusion protein and a second round—using the first PCR as a template—to introduce the TLR3 leader peptide in the construct. The PCR product was TA-cloned into the pGEMTeasy vector for sequencing and finally cloned into the pcDNA3.1 vector using the NheI and NotI restriction sites.
(§2) Following two wash cycles, cell MFI was analyzed on a FACS Canto II cytometer. With the aim to study the effect of pH on mAb affinity, staining was performed in staining buffer (0.2% BSA, 2 mM EDTA, 0.02% Sodium Azoture) pH7.4 or in citric acid-acidified staining buffer pH5.6.
Secondary screening was performed as in immunization #1, above. Potentially interesting hybridomas were cloned by limiting dilution techniques in 96-wells plates, and clones were tested in the same series of secondary screens as for hybridomas. With the aim to compare hybridomas to our reference anti-TLR3 mAbs, the hybridomas were amplified and their supernatants were purified. Purified mAbs were tested in a gene-reporter assay.
Antibodies were then tested for binding to further set of mutants in the N-terminal portion of TLR3 to identify new epitopes. Antibodies were therefore tested for binding to TLR3 mutants. TLR3 mutant polypeptides having mutations in positions Q44H and V45I, R64Q and R65Q, T86S and K89Q, K97I and M100L, K117Q and A120V, Q136H, N140S, V144K and K145N, K147A, K163A, Q167G, Q184L and K187R, Q184L and K187Q, D192E and A195G, Q208P and 1209L, H218Q, A219T, G234N and S236H, L243W and A246S, S112A. Q113S. and S115A, and K137S and K139A (reference to SEQ ID NO: 1) were prepared as described herein in the Materials and Methods and anti-TLR3 antibody staining to cells expressing TLR3 mutant polypeptides was assessed by FACS.

[3] = biological target: T1, human TLR3 solely at the cell surface (TLR3/CD32-expressing 293T cells) (Homo sapiens, UniProt O15455); test: Titration on HEK293T cells expressing TLR3 ECD-CD32 solely at the cell surface (FACS); type: binding; settings: neutral pH
T1 construct: transiently transfected with the wild-type or mutant TLR3 ECD-CD32 construct; expressed in transfected cells; host or cells: HEK293T, transient, pcDNA3.1
Method: as §1, §2
Additionally, binding (e.g. affinity) to cell surface TLR3 at neutral pH may differ from that of endosomally-expressed TLR3 at acidic pH. Antibodies were tested for binding to cells expressing human TLR3 solely at the cell surface (TLR3/CD32-expressing 293T cells), at neutral pH conditions since pH could potentially affect TLR3 conformation.

[4] = biological target: human TLR3 (Homo sapiens, UniProt O15455); test: 293T-TLR3-ISRE luciferase reporter assay; type: cell-based; settings: dsRNA TLR3 agonists
Description: A reporter gene assay using as promoter ISRE (IFN-stimulated response element) and as reporter gene and protein luciferase was set up. A 293T cell line (ATCC, #CRL-1573) was stably transfected with pISRE-luc plasmid (#219089—Stratagene), further selected by cloning as inducing optimal response to IFN-alpha stimulation and referred to as control 293T-ISRE. This cell line was further stably transfected with pUNO-humanTLR3 plasmid (#puno-htlr3—InVivogen) and referred to as 293T-TLR3-ISRE.
Efficacy assay was performed as described: on day 0, cells are seeded at 4×10^5 cells/mL in complete culture medium in 96-well culture plate (100 μl/well). Cells are first incubated at 37° C. for 20 hours, then 50 μL of medium are discarded and cells are activated with 25 μl/well final of fixed amounts of polyAU together with increasing concentrations of anti-TLR3 antibodies. Cells incubated with fresh medium will be used as background luciferase activity (50 μl/well). Cells are incubated at 37° C. for 6 hours. 100 μL of freshly thawed Steady Glo (Promega) are added to each well, plates were incubated 10 min at RT in the dark and the light emitted in each well is quantified as Count Per Second (CPS) on a gamma-counter (TopCount) apparatus.
Antibodies were tested for inhibition of TLR3 signaling in a luciferase based reporter gene activity (293T-TLR3-ISRE). Engagement of TLR3 receptor using TLR3-agonists such as poly (I:C) has been reported to activate the type-IFN pathway including the promoter ISRE (Wietek et al. J. Biol. Chem., 278 (51), p50923, 2003). Briefly, dsRNA TLR3 agonists were used to induce TLR3 signaling in the reporter assay in the presence of anti-TLR3 antibodies, and TLR3 signaling was assessed. […] Each antibody is compared with reference antibody 31C3.

Molecule: O=C(Nc1c(Cl)cncc1Cl)c1ccc(OC(F)F)c(OCC2CC2)c1 [Roflumilast, roflumilast]
- infiltration of neutrophils into the airways (BAL differential cell count) ([1]; 28G7 i.p. 500 μg twice per week, roflumilast 3 mg/kg oral five times per week): decreased infiltration of neutrophils
- BAL macrophages and lymphocytes [1]: decreases in macrophages

B1: 32C4: rat anti-human TLR3 monoclonal antibody; VH SEQ ID NO: 25, VL SEQ ID NO: 26 (antibody, listed as Rattus norvegicus, V domains shown)
VH: EVQLQQYGAELGKPGTSVKLSCKVSGYNIWSTYIYWVNQRPGKGLEWIGRIDPANGNTIYAEKFKTKATLTADTSSNTAYMQLSQLKSDDTAIYFCAMGDHGGYVMDAWGQGASVTVSS
VL: DIQMTQSPGSLSASLGETVSIECLASEDIYSYLAWYQQKPGKSPQLLIYAANRLEDGVPSRFSGSGSGTQYSLKISGMQPEDEGDYFCLQGSEFPYTFGTGTKLELK
- binding to wild type TLR3 and mutants K145E, D116R, E171A, K182E or N196A [2]: did not show any loss of binding
- binding to TLR3 in presence of the mutation K145E or K182E [2]: bound TLR3
- binding to surface-expressed human TLR3 [3]: strong binding
- inhibition of dsRNA-induced TLR3 signaling, potency compared with antibody 31C3 [4]: more potent

B2: 11E1: mouse anti-human TLR3 monoclonal antibody; VH SEQ ID NO: 3, VL SEQ ID NO: 4 (antibody, listed as Mus musculus, V domains shown)
VH: QVQLQQPGAELVRPGASVKLSCKASGYTFTNYWMNWVKQRPGQGLEWIGMIDPSDSETHYNQMFKDKATLTVDKSSSTAYMQLSSLTSEDSAVYYCARGGASSDYYYFDYWGQGTTLTVSSASTK
VL: ETTVTQSPASLSMAIGEKVTIRCITSTDIHDDINWYQQKPGEPPKLLISEGNTLRPGVPSRFSSSGYGTDFVFTIENMLSEDVADYYCLQSDNLPRTFGGGTKLEIKRT
- binding to wild type TLR3 and mutants K145E, D116R, E171A, K182E or N196A [2]: did not show any loss of binding
- binding to TLR3 in presence of the mutation K145E or K182E [2]: bound TLR3
- binding to surface-expressed human TLR3 [3]: strong binding
- inhibition of dsRNA-induced TLR3 signaling, potency compared with antibody 31C3 [4]: more potent

B3: 37B7: rat anti-human TLR3 monoclonal antibody; VH SEQ ID NO: 36, VL SEQ ID NO: 37 (antibody, listed as Rattus norvegicus, V domains shown)
VH: QVQLQQSGTELVKPGSSVKISCKASGYTFTSNYMHWIRQLPGNGLEWIGWIFPGDGDTNYNQKFNGKATLTADKSSSTAYMQLSSLTSEDYAVYFCARSDGDWYFDFWGPGTMVTVSS
VL: DIQMTQSPGSLSASLGETVTIQCQASEDIYSGLAWYQQKPRKSPQLLISAASRLQDGVPSRFSGSGSGTQYSLKISSMQTEDEGVYFCQQGVKYPNTFGPGTKLELK
- binding to wild type TLR3 and mutants K145E, D116R, E171A, K182E or N196A [2]: did not show any loss of binding
- binding to TLR3 in presence of the mutation K145E or K182E [2]: bound TLR3
- inhibition of dsRNA-induced TLR3 signaling, potency compared with antibody 31C3 [4]: more potent

B4: 7G11: rat anti-human TLR3 monoclonal antibody; VH SEQ ID NO: 47, VL SEQ ID NO: 48 (antibody, listed as Rattus norvegicus, V domains shown)
VH: EVQLQQYGAELGKPGTSVKLSCKVSGYNITYTYMHWVNQRPGKGLEWIGRIDPANGNTIYGEKFKNKATLTADTSSNTAYMQLSQLKSDDTAIYFCAMGEFDYFDHWGQGVMVTVSS
VL: DIQMTQSPASLSASLGETVSIECLASEDISNDLAWYQQKSGKSPQVLIYAASRLEDGVPSRFSGSGSGTRYSLKISGMQPEDEADYFCQQSYKYPVTFGSGTKLEIK
- binding to wild type TLR3 and mutants K145E, D116R, E171A, K182E or N196A [2]: did not show any loss of binding
- binding to TLR3 in presence of the mutation K145E or K182E [2]: bound TLR3
- binding to surface-expressed human TLR3 [3]: strong binding
- inhibition of dsRNA-induced TLR3 signaling, potency compared with antibody 31C3 [4]: more potent

B5: 31F6: rat anti-human TLR3 monoclonal antibody; VH SEQ ID NO: 14, VL SEQ ID NO: 15 (antibody, listed as Rattus norvegicus, V domains shown)
VH: EVQLQQSGAELGKPGTSVKLSCKVSGYNIRYTYMHWVNQRPGKGLEWIGRIDPANGDSIYGEDFKTKATLTADTSSNTAYMQLSQLKSDDTAIYFCAMGEFDYFDYWGQGVMVTVSSASTK
VL: B4 VL with A9P, D28G, K39R, V46L, E55Q, S91N, V96L
- binding to wild type TLR3 and mutants K145E, D116R, E171A, K182E or N196A [2]: did not show any loss of binding
- binding to TLR3 in presence of the mutation K145E or K182E [2]: bound TLR3
- binding to surface-expressed human TLR3 [3]: strong binding
- inhibition of dsRNA-induced TLR3 signaling, potency compared with antibody 31C3 [4]: more potent
